Data on 19 sequences can be found in the DeepSol protein solubility set.

This series is described as follows: soluble on expression in E. coli; label from the status in PepcDB or PDB records.
On to “MKPLSSQLNMKINDFYLPLLPVIGTGRLYITSKGHACHAYFREVSGHGIRFTLTYSGYEGRFWISEEQFIQWCQELFPYSESRLIPEDTIKLMILWVMQTALPEGDVSVDDVQFTMLNKDIYPVIENNNGENRLNVIILETTVQSLQYLINDNWQLVPHSNALFFDGYIVPGWTDYPVTELRVGDSLRLYHVDDSQERRCWIVINTPLATVNLSDNNLSVTDVLAADLLSALSNETVMNRIYCAIGTVHIDIHMLRNVKKDDIINSDGYHLFGGCQLIRNNTTIAYGSIVKINEDFYFTVSIVCD”, for which the “soluble on expression in E. coli” value is “soluble”.

On to “MSVVPVADVLQGRVAVDSEVTVRGWVRTRRDSKAGISFLAVYDGSCFDPVQAVINNSLPNYNEDVLRLTTGCSVIVTGKVVASPGQGQQFEIQASKVEVAGWVEDPDTYPMAAKRHSIEYLREVAHLRPRTNLIGAVARVRHTLAQALHRFFNEQGFFWVSTPLITASDTEGAGEMFRVSTLDLENLPRNDQGKVDFDKDFFGKESFLTVSGQLNGETYACALSKIYTFGPTFRAENSNTSRHLAEFWMLEPEVAFANLNDIAGLAEAMLKYVFKAVLEERADDMKFFAERVDKDAVSRLERFIEADFAQVDYTDAVTILENCGRKFENPVYWGVDLSSEHERYLAEEHFKAPVVVKNYPKDIKAFYMRLNEDGKTVAAMDVLAPGIGEIIGGSQREERLDVLDERMLEMGLNKEDYWWYRDLRRYGTVPHSGFGLGFERLIAYVTGVQNVRDVIPFPRTPRNASF”, for which the “soluble on expression in E. coli” value is recorded as “soluble”.

For the sequence “MGSDKIHHHHHHMQDSMYSALFGALTNEHRLNNIANNLANVNTTGYKRDVLAFKDTFLSFAHDEVMEPIPNVRSKKMFPEPIHIAKPRIALAKTDFSQGSLKLTGGTLDMAVHGDGFFKVRTPDGEFYTRNGNFRQTSDGQLVTQQGWPVLGAGGDIQIPPRANLTVAENGTIYADGEEIGQVQVVTLDNLDALEKQGSNLFRLREGAEAQEVPVENPVVLQGFLETANVEVVTEMVNMIEANRQFEAYQKIMQTTDAVDKMATTQVGRGRA”, the “soluble on expression in E. coli” value is recorded as “not soluble”.

Regarding “MGSDKIHHHHHHMKELIRKLTEAFGPSGREEEVRSIILEELEGHIDGHRIDGLGNLIVWKGSGEKKVILDAHIDEIGVVVTNVDDKGFLTIEPVGGVSPYMLLGKRIRFENGTIGVVGMEGETTEERQENVRKLSFDKLFIDIGANSREEAQKMCPIGSFGVYDSGFVEVSGKYVSKAMDDRIGCAVIVEVFKRIKPAVTLYGVFSVQEEVGLVGASVAGYGVPADEAIAIDVTDSADTPKAIKRHAMRLSGGPALKVKDRASISSKRILENLIEIAEKFDIKYQMEVLTFGGTNAMGYQRTREGIPSATVSIPTRYVHSPSEMIAPDDVEATVDLLIRYLGA”, the “soluble on expression in E. coli” value was “soluble”.

Turning to “MAKNSRSKTQFENMKYEIAKEVGVNLKQGYNGDLTAREAGKIGGNIVKKVFQSYTGNSYPSERLGDTSR”, the “soluble on expression in E. coli” value was “not soluble”.

As to “AQARMGDSRDLCPHLDSIGEVTKEDLLLKSKGTCQSCGVTGPNLWACLQVACPYVGCGESFADHSTIHAQAKKHNLTVNLTTFRLWCYACEKEVFLEQRLAAPLLGSSSKFSEQDSPPPSHPLKAVPIAVADEGESESEDDDLKPRGLTGMKNLGNSCYMNAALQALSNCPPLTQFFLECGGLVRTDKKPALCKSYQKLVSEVWHKKRPSYVVPTSLSHGIKLVNPMFRGYAQQDTQEFLRCLMDQLHEELKEPVVATVALTEARDSDSSDTDEKREGDRSPSEDEFLSCDSSSDRGEGDGQGRGGGSSQAETELLIPDEAGRVISEKERMKDRKFSWGQQRTNSEQVDEDADVDTAMAALDQPAEAQPPSPRSSSPCRTPEPDNDAHLRSSSRPCSPVHHHEGHAKLSSSPPRASPVRMAPSYVLKKAQVLSAGSRRRKEQRYRSVISDIFDGSILSLVQCLTCDRVSTTVETFQDLSLPIPGKEDLAKLHSAIYQNVPAKPGACGDSYAAQGWLAFIVEYIRRFVVSCTPSWFWGPVVTLEDCLAAFFAADELKGDNMYSCERCKKLRNGVKYCKVLRLPEILCIHLKRFRHEVMYSFKINSHVSFPLEGLDLRPFLAKECTSQITTYDLLSVICHHGTAGSGHYIAYCQNVINGQWYEFDDQYVTEVHETVVQNAEGYVLFYRKSSEEAMRERQQVVSLAAMREPSLLRFYVSREWLNKFNTFAEPGPITNQTFLCSHGGIPPHKYHYIDDLVVILPQNVWEHLYNRFGGGPAVNHLYVCSICQVEIEALAKRRRIEIDTFIKLNKAFQAEESPGVIYCISMQWFREWEAFVKGKDNEPPGPIDNSRIAQVKGSGHVQLKQGADYGQISEETWTYLNSLYGGGPEIAIRQSVAQPLGPENLHGEQKIEAETRAV”, the “soluble on expression in E. coli” value is recorded as “soluble”.

For “MNMAERAEATKSWSCEPLSGKTLEEIVQNAENAADLVAYIRKPEVDLDFRLKFIAEHEEFFNEQLSDRNSRIRTCHNLSDKGIRGDTVFVFVPGLAGNLEQFEPLLELVDSDQKAFLTLDLPGFGHSSEWSDYPMLKVVELIFVLVCDVLRKWSTAVPNNDNVNPFNGHKIVLVGHSMGCFLACHLYEQHMADTKAVQTLVLLTPPKAHIEQLSKDKHIIQWALYGVFKLPWLFDVYRNKFDQVKGLQSSGIKQYFYQQGDDVKLKYRKFWQFKNNISNKSRTIIGYLLGWETVDWVKFNGVLTQTDMKQKIIIFGAEKDPIAPIENLEFYKQTINKECLRKVIILPDCSHNLCFDRPELVCENFQREVIDNSKL”, the “soluble on expression in E. coli” value is listed as “soluble”.

Regarding “MVSSQKLEKPIEMGSSEPLPIADGDRRRKKKRRGRATDSLPGKFEDMYKLTSELLGEGAYAKVQGAVSLQNGKEYAVKIIEKQAGHSRSRVFREVETLYQCQGNKNILELIEFFEDDTRFYLVFEKLQGGSILAHIQKQKHFNEREASRVVRDVAAALDFLHTKDKVSLCHLGWSAMAPSGLTAAPTSLGSSDPPTSASQVAGTTGIAHRDLKPENILCESPEKVSPVKICDFDLGSGMKLNNSCTPITTPELTTPCGSAEYMAPEVVEVFTDQATFYDKRCDLWSLGVVLYIMLSGYPPFVGHCGADCGWDRGEVCRVCQNKLFESIQEGKYEFPDKDWAHISSEAKDLISKLLVRDAKQRLSAAQVLQHPWVQGQAPEKGLPTPQVLQRNSSTMDLTLFAAEAIALNRQLSQHEENELAEEPEALADGLCSMKLSPPCKSRLARRRALAQAGRGEDRSPPTAL”, the “soluble on expression in E. coli” value is “soluble”.

Regarding “MGSDKIHHHHHHVAKQKFKITNWPTYNKALINRGSITFWLDDEAIQAWYESATPSSRGRPQRYSDLAITTVLVIKRVFRLTLRAAQGFIDSIFTLMNVPLRCPDYTSVSRRAKSVNVSFKTFTRGEIAHLVIDSTGLKVFGEGEWKVKKHGQERRRIWRKLHLAVDSNTHEIICADLSLNNVTDSEAFPGLIRQTHRKIRAAAADGAYDTRLCHDELRRKKISALIPPRKGAGYWPGEYADRNRAVANQRMTGSNARWKWTTDYNRRSIAETAMYRVKQLFGGSLTLRDYDGQVAEAMALVRALNKMTKAGMPESVRIA”, the “soluble on expression in E. coli” value is “not soluble”.

For the sequence “SIKNGILYLEDPVNHEWYPHYFVLTSSKIYYSEETSSDQGNEDEEEPKEASGSTELHSSLEVLFQGPNPAILEPEREHLDENSPLGDLLRGVLDVPACQIAIRPEGKNNRLFVFSISMPSVAQWSLDVAADSQEELQDWVKKIREVAQTA”, the “soluble on expression in E. coli” value is on record as “soluble”.

Regarding “MGEVLHIEDALNEKGVYVSTTSGVSMYPMLRNRRDTIIVKPPTAPLKKYDVPLYRRGDDYVLHRIIGKDDRGYIICGDNCINKEYGITENQIIGVLVGFYRDGNEVNMEGVGYKLYSRAWVFLHPLICAFKKIKMKAGKVKRLWHSK”, the “soluble on expression in E. coli” value is given as “not soluble”.

Regarding “MFRSSLTHLQAVSRVFIMGGHITPFVGKGSKLFIDKKHPDFGKKQNMTLEEILATTVQHTIENTGLNGKEDIVDQVVVGNFLGELFSSQGHLGPAAIGSLTYGQAGAKNPLMYKPAMRVEGACASGGLAVVSATNALKAGSADIALAVGVEVQTTATARVGGDYLARAADYQRQRKLDDFTFPCLFAKRMKYIAEHNHFTMEDTARVAAKAYANGNRNPLAHMHTRKLSFEQCNGEDPSNVKFLGNETYKEYLRMTDCSQVSDGGAGVVLANEEGLKKMGLSPNDSRLVEIKSIACAVSNLYEDPDDACCMFTSRQAAQKALSMANVKPSDLNVAEVHDCFTIAEMLMYEALGIAEYGHAKDLIRNGETTLEGRIPVNTGGGLLSFGHPVGATGIKQVMEVYRQMKGQCGAYQMKKIPALGATLNMGGDDKTAVSAVLQNI”, the “soluble on expression in E. coli” value is reported as “not soluble”.

With “MAHHHHHHMSGDLLEILGESRNWVLKRHRVLGKGGFGCATLYEEVHTPGSFVVVKDINMQIMKKEEEMKAVEMEVAILRRSCGHPNIVQFLDYYHDGQFMMYIVMEYCEGGDLARLEEQMQFRVFHQPERFVASILIQMLVGLYYLHVDQHTLHRDIKPQNVFLCSDGTIRIGDFGVSTVLNQYGCRAKAVCGSPFYMAPELCEEKAYDGKADLWSLGVMMYELMVLERPFNAKSIPALTRQIIHGEFSPIPRELHYSAQLVEMVESFLQTSPTARPTLRRVLRSSYVHSHLDCVPIVCLLSDHYARLFGEELLQQILQKHKDSTNTTSQVTTVVSRNSASVQEVERCKNHSDHSDSASAQPLAHQEISELEQWLEANGDVTDAFIDAQLPRNRADGQELSNSPSDIGRAVKTGRVFSDDIMDDSISSEQGKGQQAEDDVRDDFYEDDFESESSG”, the “soluble on expression in E. coli” value is “soluble”.

For the sequence “MSLVGYSAVSQPSPASFLLGPTLPPAPSIAFRLWRPYSMTARITSVEALPYRLPLTSKLAWGAHSALSAAEHVLVRVTLSDGSVGVAEATPRPTIYGETPGSVTAILQHLEPALLGLDIADEAALNRVRGSVAGNHTARGALDMALWEARAASRGQSLFDTLLGPHERVRVSFILGIAPPAEMLAEAERVVAAGVRCLKVKVGRHAAQDLQVIAELRRRYGDDVQLYADSNETLTLEQAPDVLAAMREAGLMYVEEPLPARDLRARAALHAAGVLPIVADDSCFTPADLERELDFDTFDVLNVKTARNGFTDGLQMLRRAAEHGKRGMVGSQASTGLGTLHAALLSTQAEVTEPCELSFVLKLGDDLLNRPIEFQDGWLNVPELREHRLDEDKLARYRIEGHHHHHH”, the “soluble on expression in E. coli” value was “not soluble”.

Turning to “MSATTKELGNSLWDSLFGTPGVQLTDDDIQNMPYASQYMQLNGGPQLFVVLAFAEDGQQKWVTQDQATLVTQHGRLVKTLLGGDNLIEVNNLAADPLIKPAQIVDGASWTRTMGWTEYQQVRYATARSVFKWDGTDTVKVGSDETPVRVLDEEVSTDQARWHNRYWIDSEGQIRQSEQYLGADYFPVKTTLIKAAKQLEHHHHHH”, the “soluble on expression in E. coli” value is listed as “soluble”.

In the case of “MGLVTDEVRARAEKYTGDEICREKTKEFLKEVSMPNGLLPLKDIEEVGYDRETGIVWLKQKKSITHKFEAIGKLVSYATEVIAQVEVGKIKKLTGVKAKELLIWVTLNELVLEQPTSSGKINFRTPTGLSRTFPVSAFVVPEVEKPATEKNNGTTEVKEAVAVTDA”, the “soluble on expression in E. coli” value was “not soluble”.

In the case of “MSLSKNPTSGFRLTHVGLRVTDIDRSVTFYTSVFGMKELGRMGLDTTTVVFLGYPDAADPQTQLFAREGVLELKSQRGMAESNDYPDFRFVKLAIGVPDMATAMEHIRSHNVKILKEAGVAQGSEVVSTFLGCDMPDKGFDRPLWEAVVAVPFVEDPDGYLIEIIPYEGHHHHHH”, the “soluble on expression in E. coli” value is recorded as “soluble”.

“MSLQTYSSSKRFNINVSQTIGRRIYMEDMVMIKGELFDGIDYIGVFDGHNGKDAAKKAMETFHKLLDEYLIKSDHYLEHLNHICNEIQQLISFTTASGTTASVIIIREDDVIFCYIGDSPIYIKSNEQVKKISIDHNTSNEEEVKRIINCGGSVVDINGTKRVNSKIVLTRSLGDKSLHPPLTNEPTIISIPLNEIDSIIVASDGISSISCELLNELTNPTFGLEQQAVNIRNIAYEKNSPDNISVVVIQITQPIISEGHHHHHH”: the “soluble on expression in E. coli” value is given as “soluble”.

Take “MFLNGNCLETLKKKEPEGGRRRLSHPGNMGWMRPSQETTPPDRSHHSGFGLFCGDPGPEIEPFSLWVFPQEMVLEIHQLFMDHEYPCHHITSHCTWVAAHWTTSQSCAAWQGCRRACCSTWWKSPAQCTRPTVMSATFETAQEPGPS”: the “soluble on expression in E. coli” value is recorded as “not soluble”.
